# B1: 2,3-DHBD_Ao (Aspergillus oryzae RIB40) (protein)
# chain: MLGKIALEEAFALPRFEEKTRWWASLFSTDAETHVKEITDINKIRIEHADKHGVGYQILSYTAPGVQDIWDPVEAQALAVEINDYIAEQVRVNPDRFGAFATLSMHNPKEAADELRRCVEKYGFKGALVNDTQRAGPDGDDMIFYDNADWDIFWQTCTELDVPFYMHPRNPTGTIYEKLWADRKWLVGPPLSFAHGVSLHVLGMVTNGVFDRHPKLQIIMGHLGEHVPFDMWRINHWFEDRKKLLGLAETCKKTIRDYFAENIWITTSGHFSTTTLNFCMAEVGSDRILFSIDYPFETFSDACEWFDNAELNGTDRLKIGRENAKKLFKLDSYKDSSA
# notes: recombinant, purified by size exclusion chromatography
# Substrate: O=C(O)c1cccc(O)c1O
# Assay: steady-state decarboxylation kinetics
# Type: biochemical, Aspergillus oryzae
# Settings: Mg2+-loaded enzyme; decarboxylation direction
protein,measurement,value
B1,Km,208 µM
same,kcat,15 s–1
